What all share (experiment): EMSA
Data set [1] deals with GST-γ-tubulin;His-E2F1 (human;human, UniProt P23258;Q01094 1-451;1-437, |).
Data set [2] addresses GST-N-γtubulin1-333 (human, UniProt P23258 1-333).
Data set [3] has as its target GST-γ-tubulin (human, UniProt P23258 1-451).

Sequence of GST-N-γtubulin1-333 (P23258 1-333): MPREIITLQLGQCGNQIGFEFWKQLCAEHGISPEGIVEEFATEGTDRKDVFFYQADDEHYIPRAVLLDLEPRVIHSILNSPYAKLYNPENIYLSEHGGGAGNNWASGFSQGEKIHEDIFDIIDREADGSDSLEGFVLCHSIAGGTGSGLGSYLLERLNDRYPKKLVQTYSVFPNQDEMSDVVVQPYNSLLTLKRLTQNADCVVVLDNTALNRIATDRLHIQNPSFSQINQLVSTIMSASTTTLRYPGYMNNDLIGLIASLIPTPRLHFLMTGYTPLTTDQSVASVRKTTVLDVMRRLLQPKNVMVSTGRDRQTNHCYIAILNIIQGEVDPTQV
Sequence of GST-γ-tubulin;His-E2F1 (P23258 whole entry, chain 1 of 2): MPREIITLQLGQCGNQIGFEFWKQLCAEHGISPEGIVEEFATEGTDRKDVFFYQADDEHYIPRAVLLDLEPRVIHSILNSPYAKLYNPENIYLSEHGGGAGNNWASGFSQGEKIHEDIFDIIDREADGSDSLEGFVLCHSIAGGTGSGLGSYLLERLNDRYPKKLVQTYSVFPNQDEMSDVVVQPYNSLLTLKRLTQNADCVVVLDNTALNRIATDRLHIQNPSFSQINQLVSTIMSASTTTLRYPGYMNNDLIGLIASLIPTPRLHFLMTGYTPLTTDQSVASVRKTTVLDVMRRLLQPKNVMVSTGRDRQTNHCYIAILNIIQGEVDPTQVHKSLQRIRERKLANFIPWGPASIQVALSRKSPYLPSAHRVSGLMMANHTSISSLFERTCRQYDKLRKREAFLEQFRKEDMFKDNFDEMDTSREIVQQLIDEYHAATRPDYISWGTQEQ
Sequence of GST-γ-tubulin;His-E2F1 (Q01094 whole entry, chain 2 of 2): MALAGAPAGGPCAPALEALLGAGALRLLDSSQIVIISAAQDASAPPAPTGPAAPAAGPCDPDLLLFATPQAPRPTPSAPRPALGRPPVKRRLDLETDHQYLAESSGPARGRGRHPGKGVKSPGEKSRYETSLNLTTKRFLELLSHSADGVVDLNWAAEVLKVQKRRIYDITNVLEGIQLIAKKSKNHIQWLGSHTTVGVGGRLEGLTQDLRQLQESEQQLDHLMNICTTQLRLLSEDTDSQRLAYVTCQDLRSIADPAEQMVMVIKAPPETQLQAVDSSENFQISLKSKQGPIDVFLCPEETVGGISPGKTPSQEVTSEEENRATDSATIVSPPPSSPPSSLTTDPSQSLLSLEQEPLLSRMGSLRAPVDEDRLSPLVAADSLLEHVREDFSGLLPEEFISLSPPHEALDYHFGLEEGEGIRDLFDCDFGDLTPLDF
Sequence of GST-γ-tubulin (P23258 whole entry): as the sequence (P23258 whole entry, chain 1 of 2) above

B1: DHFR promoter E2F site, wild type (dsDNA)
DNA 1: AGCTTCTAGTGCAATTTCGCGCCAAACTTGG
DNA 2: AATTCCAAGTTTGGCGCGAAATTGCACTAGA
Consider B1, for which the binding result in data set [1] is on record as “binds”; in data set [2], “no binding”; in data set [3], “binds”.

(Values after article PMC3205837.)
